Reference: patent publication US20020156009A1 (published 2002)

Columns and labels:
[1] = target: interleukin-1 (IL-1) receptor on human cells (human) (UniProt P14778); assay: cell-based or functional assay
[2] = target: T1, bovine serum albumin (BSA) (bovine, UniProt P02769 25-607); assay: FACS on human fibroblast cells (CCD 1089)
T1 construct: also called non-related protein
Procedure: A cell binding assay was carried out, in a modification of the procedure as described above in Example 7.1, to determine if IL-1 Hy2 of the invention binds to the interleukin-1 (IL-1) receptor. Briefly, fluorescent activated cell sorting (FACS) was used to measure cell binding of the recombinant protein (see Example 6) using fluorescent antibodies specific for the express tag on the IL-1 Hy2 recombinant protein. In each reaction, 10⁶ cells of human fibroblast cells (CCD 1089) were suspended in 100 μl of FACS buffer (containing distilled PBS, 3% calf serum and 0.01% azide). Cell binding reactions included 5 nM recombinant IL-1 Hy2 in 100 μl cell suspension. The cells were incubated on ice for one hour. The cells were pelleted by centrifugation, 200 μl of 0.2 mM BS3 (crosslinker) was added, and the cells were kept on ice for 30 minutes. Next, 10 μl […] pH 7.5 was added and the cells were incubated for 15 minutes on ice. The cells were pelleted by centrifugation, washed one time in FACS buffer, resuspended in 100 μl volume of FACS buffer, 2 μl primary antibody (anti-express tag antibody 1 mg/ml) was added, and incubation continued on ice for an additional 30 minutes. […] The cells were again pelleted by centrifugation, washed two times with FACS buffer, resuspended in 0.5 ml FACS buffer and analyzed on FACS.

T1 sequence (P02769 25-607 limits assumed): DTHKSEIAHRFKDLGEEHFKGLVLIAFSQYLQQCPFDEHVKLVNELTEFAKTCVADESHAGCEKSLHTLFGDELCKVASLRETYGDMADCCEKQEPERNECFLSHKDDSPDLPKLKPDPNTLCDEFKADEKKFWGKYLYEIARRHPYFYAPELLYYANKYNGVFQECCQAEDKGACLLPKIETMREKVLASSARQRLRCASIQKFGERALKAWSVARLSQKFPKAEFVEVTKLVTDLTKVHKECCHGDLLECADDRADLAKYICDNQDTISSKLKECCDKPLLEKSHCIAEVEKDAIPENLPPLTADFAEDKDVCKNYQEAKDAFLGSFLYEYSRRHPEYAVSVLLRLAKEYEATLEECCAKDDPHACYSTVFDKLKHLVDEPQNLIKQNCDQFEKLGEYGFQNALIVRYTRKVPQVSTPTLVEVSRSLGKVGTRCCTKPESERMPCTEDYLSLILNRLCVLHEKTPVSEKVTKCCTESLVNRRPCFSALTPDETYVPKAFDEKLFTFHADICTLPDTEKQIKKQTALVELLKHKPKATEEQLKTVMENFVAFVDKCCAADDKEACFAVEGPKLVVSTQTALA

inhibition of IL-1β induced PGE2 production, human fibroblasts (CCD 1098), 1 ng/ml IL-1β, IL-1 Hy2 at 1000 fold excess, PGE2 ELISA [1]	Molecule	binding result [2]
40 to 60%	IL-1 Hy2 (preparation used in the cell-based activity assays) (from UniProt Q8WWZ1 1-152) (ligand)	
	interleukin-1 (IL-1) receptor on human cells (receptor, UniProt P14778 18-569, looked up, whole, on cells) LEADKCKEREEKIILVSSANEIDVRPCPLNPNEHKGTITWYKDDSKTPVSTEQASRIHQHKEKLWFVPAKVEDSGHYYCVVRNSSYCLRIKISAKFVENEPNLCYNAQAIFKQKLPVAGDGGLVCPYMEFFKNENNELPKLQWYKDCKPLLLDNIHFSGVKDRLIVMNVAEKHRGNYTCHASYTYLGKQYPITRVIEFITLEENKPTRPVIVSPANETMEVDLGSQIQLICNVTGQLSDIAYWKWNGSVIDEDDPVLGEDYYSVENPANKRRSTLITVLNISEIESRFYKHPFTCFAKNTHGIDAAYIQLIYPVTNFQKHMIGICVTLTVIIVCSVFIYKIFKIDIVLWYRDSCYDFLPIKASDGKTYDAYILYPKTVGEGSTSDCDIFVFKVLPEVLEKQCGYKLFIYGRDDYVGEDIVEVINENVKKSRRLIIILVRETSGFSWLGGSSEEQIAMYNALVQDGIKVVLLELEKIQDYEKMPESIKFIKQKHGAIRWSGDFTQGPQSAKTRFWKNVRYHMPVQRRSPSSKHQLLSPATKEKLQREAHVPLG	no binding (tested: same molarity as IL-1 Hy2 (5 nM))
